Reference: the supplement of paper PMC12667976
± gives the standard error.

B1: library; numbered along this chain (parent)
chain: MATDAALRRLLRLHRTEIAVAVDSAFPLLHALADHDVVPEDKFQETLHLKEKEGCPQAFHALLSWLLTQDSTAILDFWRVLFKDYNLERYGRLQPILDSFPKDVDLSQPRKGRKPPAVPKALVPPPRLPTKRKASEEARAAAPAALTPRGTASPGSQLKAKPPKKPESSAEQQRLPLGNGIQTMSASVQRAVAMSSGDVPGARGAVEGILIQQVFESGGSKKCIQVGGEFYTPSKFEDSGSGKNKARSSSGPKPLVRAKGAQGAAPGGGEARLGQQGSVPAPLALPSDPQLHQKNEDECAVCRDGGELICCDGCPRAFHLACLSPPLREIPSGTWRCSSCLQATVQEVQPRAEEPRPQEPPVETPLPPGLRSAGEEVRGPPGEPLAGMDTTLVYKHLPAPPSAAPLPGLDSSALHPLLCVGPEGQQNLAPGARCGVCGDGTDVLRCTHCAAAFHWRCHFPAGTSRPGTGLRCRSCSGDVTPAPVEGVLAPSPARLAPGPAKDDTASHEPALHRDDLESLLSEHTFDGILQWAIQSMARPAAPFPS

Variants of: B1
Experiment: AIRE transcriptional activation functional score (insulin promoter-GFP; nonsense median 0, synonymous median 1) (normalised score); higher = higher AIRE activity (more reporter activation)
Conditions: with insulin promoter-GFP reporter in HEK293
Procedure: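 Deep mutational scan of full-length human AIRE (codon-optimized cDNA, DT-POPCode NNN libraries over three regions) integrated at a Bxb1 landing pad in HEK293 cells carrying an insulin core promoter-GFP reporter at a Flp-In site. Cells were sorted for the top 10% GFP about 14 days after transfection. Variant frequency log-ratios (select vs non-select, TileSeq) were rescaled so that the nonsense median is 0 and the synonymous median is 1, then averaged over biological replicates.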

Variant | AIRE transcriptional activation functional score
S332C | 0.951 ± 0.11
S332Y | 1.13 ± 0.22
S332P | 0.628 ± 0.17
S332D | 0.652 ± 0.32
S332H | 0.932 ± 0.096
E329I | 1.46 ± 0.24
E329G | 0.92 ± 0.3
E329K | 0.00515 ± 0.43
E329A | 1.11 ± 0.39
E329R | 0.935 ± 0.41
E329T | 0.98 ± 0.26
E329Q | -1.43 ± 0.53
E329L | 1.16 ± 0.3
E329C | 1.46 ± 0.21
E329F | 1.58 ± 0.24
E329Y | 1.42 ± 0.31
E329N | 1.33 ± 0.079
E329H | 1.45 ± 0.053
E329W | 1.13 ± 0.044
E329S | 1.09 ± 0.2
E329D | 1.74 ± 0.17
E329P | 0.962 ± 0.13
E329V | 1.1 ± 0.18
T334S | 0.928 ± 0.21

Variant | AIRE transcriptional activation functional score
T334A | 0.83 ± 0.38
T334L | 1.12 ± 0.21
T334N | 0.91 ± 0.15
T334R | 1.06 ± 0.42
T334D | 0.352 ± 0.11
T334C | 0.7 ± 0.29
T334Y | 1.17 ± 0.19
T334P | 0.902 ± 0.28
T334I | 0.977 ± 0.26
T334Q | 0.621 ± 0.44
T334F | 1.25 ± 0.23
T334M | 1.08 ± 0.054
T334W | 1.39 ± 0.14
T334K | 0.794 ± 0.15
T334H | 0.766 ± 0.4
T334V | 0.952 ± 0.29
T334G | 1.23 ± 0.26
S324H | 0.589 ± 0.076
S324A | 1.37 ± 0.25
S324Y | 1.18 ± 0.15
S324D | 1.13 ± 0.35
S324G | 1.01 ± 0.13
S324E | 0.773 ± 0.19
S324N | 1.08 ± 0.064

Variant | AIRE transcriptional activation functional score
S324V | 0.994 ± 0.27
S324I | 1.06 ± 0.23
S324Q | 0.407 ± 0.052
S324F | 1.09 ± 0.27
S324R | 0.621 ± 0.46
S324L | 1.11 ± 0.22
S324K | 0.415 ± 0.31
S324T | 0.785 ± 0.14
S324W | 1.45 ± 0.04
S324P | 0.628 ± 0.22
S324C | 1.03 ± 0.16
P326M | -0.264 ± 0.19
P326L | 1.1 ± 0.25
P326K | 0.94 ± 0.23
P326D | 0.439 ± 0.21
P326G | 0.87 ± 0.28
P326W | 1.08 ± 0.2
P326Y | 1.14 ± 0.061
P326V | 1.41 ± 0.25
P326H | 0.781 ± 0.18
P326N | 0.815 ± 0.84
P326E | 0.653 ± 0.13
P326T | 0.923 ± 0.14
P326R | 1.17 ± 0.13

Variant | AIRE transcriptional activation functional score
P326F | 1.72 ± 0.14
P326I | 1.06 ± 0.39
P326A | 0.645 ± 0.45
P326S | 0.881 ± 0.29
P326Q | 0.303 ± 0.12
P326C | 1.19 ± 0.15
W335H | 0.428 ± 0.28
W335C | 1.24 ± 0.1
W335G | 1.27 ± 0.12
W335L | 0.997 ± 0.24
W335E | 1.3 ± 0.14
W335S | 1.27 ± 0.35
W335M | 1.39 ± 0.12
W335N | 0.721 ± 0.19
W335A | 1.3 ± 0.48
W335D | 1.1 ± 0.21
W335R | 1.29 ± 0.29
W335T | 1.26 ± 0.33
W335P | 1.04 ± 0.19
W335V | 1.24 ± 0.14
W335F | 0.764 ± 0.1
W335Q | 1.19 ± 0.092
W335I | 1.02 ± 0.12
W335Y | 0.768 ± 0.46

Variant | AIRE transcriptional activation functional score
W335K | 1.12 ± 0.3
R328K | 0.67 ± 0.29
R328S | 1.17 ± 0.17
R328H | -0.256 ± 0.33
R328P | 1.22 ± 0.21
R328E | 1.06 ± 0.071
R328T | 0.764 ± 0.2
R328Y | 1.34 ± 0.16
R328Q | 0.659 ± 0.048
R328C | 0.932 ± 0.48
R328G | 0.729 ± 0.26
R328I | 1.17 ± 0.46
R328V | 1.1 ± 0.22
R328L | 1.08 ± 0.21
R328A | 0.877 ± 0.29
R328M | 1.1 ± 0.11
R328F | 0.907 ± 0.48
L327Q | 1.33 ± 0.21
L327W | 1.69 ± 0.054
L327D | 0.96 ± 0.2
L327E | 0.71 ± 0.14
L327M | 1.3 ± 0.051
L327N | 1.37 ± 0.07
L327G | 0.535 ± 0.21

Variant | AIRE transcriptional activation functional score
L327I | 0.913 ± 0.27
L327K | 0.524 ± 0.14
L327T | 0.786 ± 0.33
L327Y | 1.2 ± 0.3
L327H | -0.118 ± 0.56
L327P | 0.673 ± 0.37
L327S | 1.14 ± 0.24
L327R | 1.05 ± 0.31
L327C | 0.927 ± 0.26
L327A | 1.07 ± 0.3
L327V | 0.621 ± 0.33
L327F | 1.21 ± 0.13
I330G | 1.16 ± 0.2
I330S | 0.814 ± 0.31
I330W | 0.987 ± 0.079
I330Q | 0.577 ± 0.11
I330E | 0.403 ± 0.19
I330C | 0.866 ± 0.3
I330P | 1.33 ± 0.23
I330D | 0.391 ± 0.074
I330A | 0.828 ± 0.26
I330L | 0.906 ± 0.38
I330F | 0.831 ± 0.17
I330K | 0.557 ± 0.054

Variant | AIRE transcriptional activation functional score
I330T | 0.637 ± 0.12
I330R | 1.07 ± 0.37
I330N | 0.89 ± 0.13
I330V | 0.684 ± 0.36
I330Y | 0.572 ± 0.036
S338P | 0.56 ± 0.23
S338E | 0.862 ± 0.16
S338G | 1.11 ± 0.23
S338V | 0.911 ± 0.12
S338K | 1.08 ± 0.12
S338A | 0.683 ± 0.25
S338D | 1.08 ± 0.17
S338R | 1.2 ± 0.28
S338Y | 1.11 ± 0.13
S338M | 1.32 ± 0.11
S338N | 1.3 ± 0.079
S338W | 0.904 ± 0.038
S338T | 1.21 ± 0.23
S338Q | 0.916 ± 0.089
S338L | 1.01 ± 0.18
S338I | 1.18 ± 0.27
S338F | 0.948 ± 0.13
S338H | 1.25 ± 0.079
